Here are results for five molecules from patent US20250332297A1, “DLL3-SPECIFIC BINDING CONSTRUCTS AND THEIR USE IN RADIOTHERAPY” (MOLECULAR PARTNERS AG, priority 2024, published 2025).

Series [1] has as its target Human DLL3 expressed on cells (HEK293T-hDLL3, NCI-H82, SHP-77, MC38-hDLL3) (human) (UniProt Q9NYJ7). The series is described as follows: flow cytometry titration on HEK293T-hDLL3 cells, with HSA. A general note: In flow cytometry, cells or beads pass a laser one at a time.
Series [2] has the same target. The series is described as follows: flow cytometry titration on HEK293T-hDLL3 cells, without HSA.
Series [3] deals with T1, mouse serum albumin (mouse, UniProt P07724 25-608).
T1 construct: also called MSA
The experiment in a line: SPR (Bruker Sierra SPR-32), MSA on chip, DARPin as analyte, 1:1 Langmuir fit. Here is the method:
(§1) Similarly, a SPR assay was used to determine the binding kinetics to human or mouse serum albumin. […] All analytes (3-fold dilution ranging from 1000-12.35 nM) were injected in succession for 240 s (25 μl/min) and dissociation was recorded for 600 s (25 μl/min).

Series [4] addresses T2, Human DLL3 expressed on cells (HEK293T-hDLL3, NCI-H82, SHP-77, MC38-hDLL3) (human, UniProt Q9NYJ7 27-618).
T2 construct: also called DLL3 endogenously expressed on human cells
T2 sequence: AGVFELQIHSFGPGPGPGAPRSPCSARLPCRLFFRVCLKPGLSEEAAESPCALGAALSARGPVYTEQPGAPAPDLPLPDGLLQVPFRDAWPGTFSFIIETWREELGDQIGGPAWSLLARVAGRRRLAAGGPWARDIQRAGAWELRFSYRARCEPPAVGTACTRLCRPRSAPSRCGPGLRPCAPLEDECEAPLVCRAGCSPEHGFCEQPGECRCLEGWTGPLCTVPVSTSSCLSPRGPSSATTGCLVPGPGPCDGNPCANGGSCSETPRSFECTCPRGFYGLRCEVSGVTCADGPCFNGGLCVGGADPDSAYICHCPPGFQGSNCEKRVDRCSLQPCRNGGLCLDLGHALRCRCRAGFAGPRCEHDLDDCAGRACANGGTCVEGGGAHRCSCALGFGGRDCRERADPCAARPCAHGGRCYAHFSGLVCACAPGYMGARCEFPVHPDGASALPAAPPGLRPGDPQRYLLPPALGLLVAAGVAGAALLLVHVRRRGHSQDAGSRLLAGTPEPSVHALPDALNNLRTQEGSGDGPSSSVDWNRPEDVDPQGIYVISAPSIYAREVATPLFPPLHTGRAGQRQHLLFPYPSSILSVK
The series is described as follows: flow cytometry titration on HEK293T-hDLL3 cells, without HSA. Here is the method:
(§2) Cell binding titration assays were performed for selected His-tagged single domain (1 D) and two domain (2D) designed ankyrin repeat proteins to determine binding to human DLL3 expressed on HEK293T-huDLL3 cells in absence and presence of human serum albumin. […] HEK293T-hDLL3 cells are HEK293T cells that were stably transfected to express human DLL3 on their surface.
(§3) In brief, 1×10⁵ cells/well were resuspended in 100 μl DARPin dilution (500 nM, 1:5 serial diluted) and incubated for 1 h at 4° C. Cells were washed twice with PBS and resuspended in 100 μl anti-DARPin antibody (rabbit anti-DARPin 1.4.8) and LIVE/DEAD fixable cell stain (1:1000, Thermo Fisher #L34957). This step was performed in absence and presence of 10 pM Human Serum Albumin (CSL Behring #150570). After incubation and washing, cells were incubated with detection antibody for 30 minutes (Goat […] IgG (H+L), AF647, Thermo Fisher #21445). Cells were fixed (Paraformaldehyde Solution, LucernaChem) and acquired at Attune N×T (Thermo Life Technologies). Raw fcs files were exported and analyzed using FlowJo software. MFI values of live AF647-positive cells were exported from FlowJo and plotted using GraphPad Prism software.

In series [5] the target is T3, hDLL3 ECD-Avi-Fckih (biotinylated extracellular domain of human DLL3, residues 27 to 466, Avi-tag, 3C site, … (human, UniProt Q9NYJ7 27-466, biotinylated at the Avi-tag)).
T3 construct: The make-up of the second Fc chain of the knob-into-hole pair is not described; also called bio-DLL3; recombinant human DLL3; not shown: Avi-tag, 3C protease recognition site and Fc knob into hole
T3 sequence: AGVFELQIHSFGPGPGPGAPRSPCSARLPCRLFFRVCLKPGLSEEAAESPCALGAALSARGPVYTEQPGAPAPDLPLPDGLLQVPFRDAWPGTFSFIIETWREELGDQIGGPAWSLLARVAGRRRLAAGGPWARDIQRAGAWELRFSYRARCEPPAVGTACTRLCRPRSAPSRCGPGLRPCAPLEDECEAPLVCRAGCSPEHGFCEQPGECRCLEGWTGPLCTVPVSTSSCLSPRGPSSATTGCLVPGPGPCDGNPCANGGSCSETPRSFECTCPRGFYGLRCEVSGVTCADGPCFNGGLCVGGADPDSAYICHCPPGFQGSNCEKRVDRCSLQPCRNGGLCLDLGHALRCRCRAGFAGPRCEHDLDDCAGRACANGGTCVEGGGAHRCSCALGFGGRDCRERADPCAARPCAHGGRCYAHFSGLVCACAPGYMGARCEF
The series is described as follows: SPR (ProteOn), biotinylated hDLL3 ECD-Avi-Fckih on chip, DARPin as analyte, 1:1 Langmuir fit. Here is the method: Kinetic binding parameters and binding affinities of two domain (2D) ankyrin repeat proteins comprising an ankyrin repeat domain with binding specificity for DLL3 and an ankyrin repeat domain with binding specificity for serum albumin were determined by surface plasmon resonance (SPR) multi-trace analysis.
In brief, a SPR assay was used to determine the binding kinetics to the target human DLL3. The data were generated using BioRad ProteOn instrument in SPR running buffer (PBS, pH 7.4 containing 0.005% Tween 20®). […] The chip was coated with biotinylated target (bio-DLL3) to reach a signal intensity of 1780 RU. […] Each injection was followed by a regeneration step with 16 mM H₃PO₄ for 18 s. […] The bio-DLL3 target used was as described in U.S. 63/550,951, i.e. the extracellular domain (ECD) of human DLL3 protein (Q9NYJ7, Gene ID: 10683, residues 27 to 466; purchased from Evitria) linked via an Avi-tag (for site-directed biotinylation), followed by a 3C protease recognition site, to a Fc knob into hole (hDLL3 ECD-Avi-Fcₖᵢₕ).

Series [6] concerns the target T2, Human DLL3 expressed on cells …. The experiment in a line: flow cytometry titration on NCI-H82 cells (endogenous DLL3), with 10 uM HSA. Here is the method:
(§4) Furthermore, cell binding titration assays were also performed with selected two domain (2D) designed ankyrin repeat proteins to determine binding to human cells expressing DLL3 endogenously, in absence and presence of human serum albumin. For this purpose, NCI-H82 cells were used, a human lung carcinoma cell line which endogenously expresses DLL3 on the surface. […] A non-binding DARPin comprising SEQ ID NO: 22 was used as a negative control.
as §3, with “diluted in PBS, 2% FBS)” for “diluted)”, “C. This step was performed in absence and presence of 10 μM Human Serum Albumine (CSL Behring #150570).” for “C.”, “PBS, 2% FBS” for “PBS”, “LIVE/DEAD” for “LIVE/DEAD fixable”, “Biolegend #423106).” for “Thermo Fisher #L34957). This step was performed in absence and presence of 10 pM Human Serum Albumin (CSL Behring #150570).”, “Solution, TCL119,” for “Solution,”

Series [7] has the same target. The experiment in a line: flow cytometry titration on HEK293T-hDLL3 cells, with HSA. Here is the method: as §2, §3
Series [8] concerns the target T4, human serum albumin (human, UniProt P02768 25-609).
T4 construct: also called HSA
The series is described as follows: SPR (Bruker Sierra SPR-32), HSA on chip, DARPin as analyte, 1:1 Langmuir fit. Here is the method:
as §1

Series [9] deals with T2, Human DLL3 expressed on cells …. The experiment in a line: flow cytometry titration on NCI-H82 cells (endogenous DLL3), without HSA. As to the method: as §4
as §3, with “diluted in PBS, 2% FBS)” for “diluted)”, “C. This step was performed in absence and presence of 10 μM Human Serum Albumine (CSL Behring #150570).” for “C.”, “PBS, 2% FBS” for “PBS”, “LIVE/DEAD” for “LIVE/DEAD fixable”, “Biolegend #423106).” for “Thermo Fisher #L34957). This step was performed in absence and presence of 10 pM Human Serum Albumin (CSL Behring #150570).”, “Solution, TCL119,” for “Solution,”

Series [10] addresses human serum albumin (Homo sapiens, UniProt P02768).
Series [11] has as its target T5, mouse serum albumin (Mus musculus, UniProt P07724).
T5 construct: purchased Sigma-Aldrich
The series is described as follows: SPR binding of 2D DARPins with different HSA binders to mouse serum albumin (Example 3). The conditions noted are these: immobilized MSA, Cysteine capped with IAM, 1:1 Langmuir, Table 12. A general note: Surface plasmon resonance follows binding to a sensor surface in real time, without labels.

Substitutions are numbered along the chain they refer to.

T1 sequence (P07724 25-608 limits assumed): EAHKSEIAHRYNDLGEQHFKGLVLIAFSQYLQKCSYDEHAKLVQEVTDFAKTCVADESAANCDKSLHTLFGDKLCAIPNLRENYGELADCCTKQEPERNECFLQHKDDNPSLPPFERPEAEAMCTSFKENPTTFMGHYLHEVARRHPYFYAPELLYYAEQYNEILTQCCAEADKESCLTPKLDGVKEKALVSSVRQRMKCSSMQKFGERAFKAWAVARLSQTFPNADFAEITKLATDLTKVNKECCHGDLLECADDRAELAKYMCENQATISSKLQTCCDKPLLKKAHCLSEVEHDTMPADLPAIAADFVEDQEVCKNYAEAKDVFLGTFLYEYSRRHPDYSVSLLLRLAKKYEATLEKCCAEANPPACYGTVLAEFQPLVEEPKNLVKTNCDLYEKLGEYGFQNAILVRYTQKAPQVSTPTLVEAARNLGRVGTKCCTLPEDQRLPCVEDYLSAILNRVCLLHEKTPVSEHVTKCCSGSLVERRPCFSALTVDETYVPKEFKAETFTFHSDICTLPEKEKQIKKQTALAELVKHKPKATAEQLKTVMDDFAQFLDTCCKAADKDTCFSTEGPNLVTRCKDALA
T5 sequence (P07724 25-608): as the sequence (P07724 25-608 limits assumed) above

In general, EC50 refers to the midpoint of the concentration-response curve. Read a high EC50 as a need for much substance. Regarding Rova antibody, the EC50 in [1] worked out at 0.3 nM; in series [2] it was 0.1 nM.

B1: MAM282 (two domain ankyrin repeat protein, N-terminal His6-TEV tag) (designed binder)
chain: MRGSHHHHHHENLYFQDLGKKLLEAARAGQDDEVRELLKAGADVNAKDYFSHTPLHLAARNGHLKIVEVLLKAGADVNAKDFAGKTPLHLAADAGHLEIVEVLLKAGADVNAQDIFGKTPADIAADAGHEDIAEVLQKAAGSPTPTPTTPTPTPTTPTPTPTGSDLGKKLLAAAREGQDDEVRELLKAGADVNAKDIWGQTPLHIAAWFGHLEIVEVLLKAGADVNAKDQTGHTPLHLAAKFGHLEIVEVLLKAGADVNAQDLLGRTPADLAAEEGHEDIAEVLQKAA
notes: also called 2D DARPin
What is called Kd is the equilibrium constant for the complex coming apart. In general, koff refers to the rate constant with which the complex falls apart. The low end stands for a long-lived complex, the high end for a short-lived complex. As a reminder, the kon is the second-order rate constant of association. As for B1, the values for the Kd (with mouse serum albumin [3]; in series [5]; with human serum albumin [8]) were 335 nM, 3.03 nM and 74.3 nM, respectively. Further, the koff with mouse serum albumin [3] came to 0.0354 s⁻¹; in series [5], 3.79e-05 s⁻¹; with human serum albumin [8], 0.00889 s⁻¹. For the same molecule, the kon with mouse serum albumin [3] came out at 106000 M⁻¹ s⁻¹; in series [5] it was 12500 M⁻¹ s⁻¹; with human serum albumin [8], 120000 M⁻¹ s⁻¹. Also, the EC50 in series [4] amounted to 21.2 nM; in [6], 2.6 nM; in series [7] it was 19.6 nM; in series [9], 2.6 nM.

B2: MAM283 (two domain ankyrin repeat protein, N-terminal His6-TEV tag) (designed binder)
chain: MRGSHHHHHHENLYFQDLGKKLLEAARAGQDDEVRELLKAGADVNAKDYFSHTPLHLAARNGHLKIVEVLLKAGADVNAKDFAGKTPLHLAADAGHLEIVEVLLKAGADVNAQDIFGKTPADIAADAGHEDIAEVLQKAAGSPTPTPTTPTPTPTTPTPTPTGSDLGKKLLAAAADGQDDEVRELLQAGADVNAKDLFGYTPLHLAAWRGHLEIVEVLLEAGADVNAKDAAGETPLHLAAWFGHLEIVEVLLEAGADVNAQDVQGKTPADLAAKEGHEDIAEVLQQAA
notes: also called 2D DARPin
Turning to B2, the dissociation constant (Kd) in the series with mouse serum albumin [3] stood at 507 nM; in series [5], 0.953 nM; in the series with human serum albumin [8], 103 nM. Besides, the off-rate (koff) came to 0.0378 s⁻¹ with mouse serum albumin [3], 1.79e-05 s⁻¹ in [5] and 0.00924 s⁻¹ with human serum albumin [8]. The values for the on-rate constant (kon) (with mouse serum albumin [3]; in [5]; with human serum albumin [8]) were 74700 M⁻¹ s⁻¹, 18800 M⁻¹ s⁻¹ and 89500 M⁻¹ s⁻¹, respectively. Moreover, the half-maximal effective concentration (EC50) in series [4] was found to be 22.1 nM; in series [6], 8.1 nM; in series [7] it was 18.4 nM; in series [9] it was 5.4 nM.

B3: MAM279 (two domain ankyrin repeat protein, N-terminal His6-TEV tag) (designed binder)
chain: B2 chain with D176Q, Q187K, D191N, E220K, E253K, V263L, Q286K
notes: Cleavage of the tag is not reported; also called 2D DARPin
Take B3: the Kd in the series with mouse serum albumin [3] is 367 nM; in [5] it was 0.616 nM; in the series with human serum albumin [8] it was 75 nM. The figures for the koff (with mouse serum albumin [3]; in [5]; in the series with human serum albumin [8]) were 0.0335 s⁻¹, 1.44e-05 s⁻¹ and 0.00923 s⁻¹, respectively. Also, the association rate constant (kon) with mouse serum albumin [3] was 91200 M⁻¹ s⁻¹; in [5], 23300 M⁻¹ s⁻¹; with human serum albumin [8], 123000 M⁻¹ s⁻¹. In addition, the 50% effective concentration (EC50) in series [4] is 14.9 nM; in [6], 2.1 nM; in [7], 16.3 nM; in series [9], 2.5 nM.

B4: High HSA affinity 2D DARPin: MAM160 with a GS at the N-terminus and a Cysteine-containing tag at the C-terminus (protein)
chain: GSDLGKKLLEAARAGQDDEVRELLKAGADVNAKDYFSHTPLHLAARNGHLKIVEVLLKAGADVNAKDFAGKTPLHLAADAGHLEIVEVLLKAGADVNAQDIFGKTPADIAADAGHEDIAEVLQKAAGSPTPTPTTPTPTPTTPTPTPTGSDLGTKLLSAAADGQDDEVRELLQAGADVNAKDLFGYTPLHLAAWRGHLEIVEVLLEAGADVNAKDAAGLTPLHLAAWFGHLEIVEVLLEAGADVNAQDVQGVTPADLAAKEGHEDIAEVLQQAAGSGSC
modifications: Ankyrin repeat protein with tag (GS-MAM160-tag)
In the case of B4, in the series with human serum albumin [10], the “Koff HSA” value is 0.0311 s⁻¹ and the “Kon HSA” value worked out at 105000 M⁻¹ s⁻¹. For the same molecule, the “fold higher binding affinity to HSA than the Low HSA affinity 2D DARPin” value with human serum albumin [10] (SPR KD comparison) is “about 10 fold”. Besides, in the series with mouse serum albumin [11], the “Koff MSA” value came to 0.0345 s⁻¹ and the “Kon MSA” value is 133000 M⁻¹ s⁻¹.
